Test results: patent publication US8962263B2, “Methods and compositions for detecting the activation state of multiple proteins in single cells” (The Board of Trustees of the Leland Stanford Junior …, priority 2001, dated 2015)
Like-named read-outs stand apart in the source and are kept apart here.

B1: ICAM-2: biochemically purified soluble human ICAM-2 protein from retrovirally transduced NIH3T3 cells; ICAM-2-FC fusion also used (protein, UniProt P13598 25-223, looked up)
extracellular domain: KVFEVHVRPKKLAVEPKGSLEVNCSTTCNQPEVGGLETSLDKILLDEQAQWKHYLVSNISHDTVLQCHFTCSGKQESMNSNVSVYQPPRQVILTLQPTLVAVGKSFTIECRVPTVEPLDSLTLFLFRGNETLHYETFGKAAPAPQEATATFNSTADREDGHRNFSCLAVLDLMSRGGNIFHKHSAPKMLEIYEPVSDSQ
modifications: extracellular domain
notes: biochemically purified soluble human ICAM-2 protein from retrovirally transduced NIH3T3 cells; ICAM-2-FC fusion also used

Tests used:
cell surface LFA-1 = target: T1, cell surface LFA-1 (Homo sapiens, UniProt P20701); assay: ICAM-2-FITC surface binding on Jurkat cells by flow cytometry (single cell binding measurements)
T1 construct: within the physiological context of cell surface LFA-1; endogenous in cells; host or cells: Jurkat T cells
Experimental: A) Purified human ICAM-2, from retrovirally transduced NIH3T3, (see materials and methods) was tested for purity, size, and aggregate formation by native gel electrophoresis and gel filtration. Analysis of purified ICAM-2, from two different preps and ICAM2-FC from NSO cells. Molecular weight was calculated using relative distance migration from a molecular weight standard. Concentration was determined using serial dilutions of BSA as a standard. […] B) ICAM-2, ligand binding to cell surface as a function of time. 5×10^6, unstimulated and PMA stimulated (1, μg/ml, 30, min) Jurkat T cells were incubated with ICAM-2-FITC or LFA-1-FITC antibody (1, μg/ml) and subjected to time dependent flow cytometry. Mean fluorescence intensity was plotted per time of a gated homogenous cell population. Flow rate was maintained at 200-300, cells/second, with fluorescence intensity values acquired at 10, millisecond intervals for 1200, seconds. C) Flow cytometric analysis of ICAM-2-FITC and a-LFA-1-FITC surface binding on cytochalisin D treated (10, μM, 30, min) Jurkat cells at 37° C. and 4° C. D) Curve fit analysis of ICAM-2-FITC binding per 10^4, cells. Jurkat cells were incubated with ICAM-2-FITC at 37° C. for 30, min at indicated concentrations in 50, μL volume. Cells were washed 1×, and analyzed for mean fluorescent intensity (MFI) of 10^4, cells. Percent ICAM-2-FITC bound was calculated from the following equation: 100×[(MFI[×]−MFIunstained)/(MFI[saturated]−MFIunstained)] where [×]=ICAM-2-FITC concentration and [saturated]=concentration that saturated binding. Values were fit to the equation Y=m1*M0/(m2+M0) (see materials and methods).
Full length ICAM2 cDNA was obtained from Jurkat cells and cloned into retroviral vector PBM-Z-IN at the BamHI/Sal1 site as described (Perez et al., 2002). Human ICAM-2 was overexpressed in NIH3T3 cells by retroviral infection and harvested by immunoaffinity chromatography. ICAM-2 was affinity purified using a two step lysing procedure and subsequent purification on an anti-ICAM-2 solid support. […] Batch lysate of harvested supernatant was performed (4° C., for 2 hrs), and washed 4 times in buffer C (0.1% Tween-20, PBS pH 7.4). ICAM-2 protein was eluted by 4.5 M NaCl (in Tris pH 6.8), dialyzed overnight (in PBS pH 7.4, 0.001% azide, 0.01% glycerol, 4° C.), concentrated using size exclusion spin chromatography and stabilized using 0.01% glycerol. Anti-ICAM-2 solid support was re-equilibrated in buffer C, stored in 0.001% thimerosol and re-used up to 3 times. Purity was >98% as assessed by coomasie gel. […] Gel imaging was performed on a VersaDoc machine (Biorad) and analyzed using Quantity One quantitation software (Biorad). […]

LFA-1 = LFA-1 activation by mAb24-Alexa633 staining, flow cytometry; format: cell-based, human; details: Jurkat cells, agents 10 μM 30 min, PMA 1 μg/ml, prior to ICAM-2 10 μg/ml 30 min
Experimental: A) Confocal microscopy of actin and microtubule architecture upon ICAM-2, stimulus (10, μg/ml, 30, min) in Jurkat cells. Actin was stained by phalloidin-alexa633, and tubulin by taxol-alexa546. Inserts display enlarged cell image of representative treatment B) Flow cytometric staining for actin and microtubules as described above. C) Left: Fluorescence topography analysis of ICAM-2-FITC (1 μg/ml, time as indicated) surface distribution. Intensity color gradient depicts high and low fluorescent intensity values. Right: Confocal microscopy of ICAM-2-FITC surface binding (10 μg/ml, 30, min) and anti-β2-alexa568, (clone CTB104). D) Staining for ICAM-2-FITC surface binding (fluorescence intensity) and surface distribution (fluorescence pulse) in cytochalisin D treated Jurkat cells at 37° C. and 4° C. by flow cytometry. E) Values for ICAM-2-FITC fluorescence intensity per time-of-flight per cell as described in text. F) Flow cytometric staining for LFA-1 activation by mAb24-alexa633. Stimuli as indicated (10, μM, 30, min), PMA (1, μg/ml) prior to ICAM-2, stimulation (10, μg/ml, 30, min). Staining was performed at 37° C. G) Mean fluorescence intensity (MFI) values of mAb24-633, and ICAM-2, cluster values, computed as described above, as a function of time.
Intracellular and extracellular staining was performed as described (Perez and Nolan, 2002). Intracellular probes for active kinases were made by conjugating phospho-specific antibodies to the ALEXA FLUOR® dye series as described and used in phospho-protein optimized conditions (Perez and Nolan, 2002). Kinetic analyses was performed by direct application of fixation buffer in time synchronized 96-wells maintained at 37° C. Intracellular actin and microtubule staining was performed using phalloidin-Alexa633 and taxol-Alexa546 dyes (Molecular Probes). Adhesion and clustering assays were performed using ICAM-2-FITC as described in text. LFA-1 activation was assessed by either mAb24-Alexa633 or mAb24-Alexa546 conjugate, surface stained at 37° C. Flow cytometry data are representative of 3 independent experiments of 10^6 cells/sample. 10-50,000 events were collected and manually calibrated on a FACSCalibur™ machine. Data plotted in bar graph format is expressed as geometric mean fluorescence intensity (MFI) and normalized for isotype controls. Log ratios are defined as the MFI of stimulus to the MFI of unstimulated cells. Data was analyzed using Flowjo™ software (Treestar).

T1 sequence (P20701 26-1170): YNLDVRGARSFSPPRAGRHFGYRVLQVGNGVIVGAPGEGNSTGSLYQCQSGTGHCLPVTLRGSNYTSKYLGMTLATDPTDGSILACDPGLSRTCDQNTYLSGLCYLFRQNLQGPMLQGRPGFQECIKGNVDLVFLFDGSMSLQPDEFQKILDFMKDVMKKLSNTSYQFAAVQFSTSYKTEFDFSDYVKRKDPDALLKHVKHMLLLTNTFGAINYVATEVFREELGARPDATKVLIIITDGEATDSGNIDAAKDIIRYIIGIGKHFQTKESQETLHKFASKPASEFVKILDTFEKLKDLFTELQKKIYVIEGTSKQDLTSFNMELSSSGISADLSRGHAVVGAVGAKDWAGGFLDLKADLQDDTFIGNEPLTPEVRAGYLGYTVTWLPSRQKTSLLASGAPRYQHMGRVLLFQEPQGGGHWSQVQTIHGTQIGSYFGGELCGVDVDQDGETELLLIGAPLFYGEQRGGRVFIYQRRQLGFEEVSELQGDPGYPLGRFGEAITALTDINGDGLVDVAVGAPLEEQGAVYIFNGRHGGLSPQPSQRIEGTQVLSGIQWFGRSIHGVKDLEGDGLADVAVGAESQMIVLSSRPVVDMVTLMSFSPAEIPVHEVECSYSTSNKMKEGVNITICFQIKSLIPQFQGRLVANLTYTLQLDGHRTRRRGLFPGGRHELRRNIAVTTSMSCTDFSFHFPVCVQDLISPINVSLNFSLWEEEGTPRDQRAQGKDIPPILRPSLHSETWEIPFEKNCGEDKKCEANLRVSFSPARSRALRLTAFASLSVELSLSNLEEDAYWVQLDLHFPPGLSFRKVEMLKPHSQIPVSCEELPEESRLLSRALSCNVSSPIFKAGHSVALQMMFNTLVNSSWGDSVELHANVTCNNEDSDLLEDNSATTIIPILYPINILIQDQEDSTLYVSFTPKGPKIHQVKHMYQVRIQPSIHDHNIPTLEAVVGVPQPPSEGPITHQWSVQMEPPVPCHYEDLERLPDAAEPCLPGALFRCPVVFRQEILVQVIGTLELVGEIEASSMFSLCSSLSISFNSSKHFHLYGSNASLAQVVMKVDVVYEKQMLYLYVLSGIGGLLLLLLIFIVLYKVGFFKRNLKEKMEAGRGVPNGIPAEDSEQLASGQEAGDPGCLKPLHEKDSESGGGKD
T1 sequence (P05107 23-769 partner): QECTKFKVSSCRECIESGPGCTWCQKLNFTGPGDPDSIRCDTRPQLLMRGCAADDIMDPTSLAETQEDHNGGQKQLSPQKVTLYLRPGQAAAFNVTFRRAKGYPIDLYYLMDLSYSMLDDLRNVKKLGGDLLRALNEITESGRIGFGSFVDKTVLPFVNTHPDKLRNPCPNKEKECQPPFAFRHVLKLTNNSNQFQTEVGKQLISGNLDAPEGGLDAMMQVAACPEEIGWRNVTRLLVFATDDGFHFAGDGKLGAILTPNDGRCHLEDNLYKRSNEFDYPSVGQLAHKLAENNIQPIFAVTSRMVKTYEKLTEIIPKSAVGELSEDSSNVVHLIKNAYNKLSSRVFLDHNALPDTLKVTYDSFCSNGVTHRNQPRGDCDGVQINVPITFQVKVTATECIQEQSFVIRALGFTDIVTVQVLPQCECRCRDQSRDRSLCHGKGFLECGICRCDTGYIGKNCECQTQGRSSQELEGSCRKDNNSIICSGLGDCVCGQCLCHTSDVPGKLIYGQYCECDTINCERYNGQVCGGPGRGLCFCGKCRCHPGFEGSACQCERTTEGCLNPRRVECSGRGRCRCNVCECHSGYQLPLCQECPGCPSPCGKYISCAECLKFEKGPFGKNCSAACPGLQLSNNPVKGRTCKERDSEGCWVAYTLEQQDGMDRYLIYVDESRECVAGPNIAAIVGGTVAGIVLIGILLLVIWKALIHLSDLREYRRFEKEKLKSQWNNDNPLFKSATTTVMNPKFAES

Molecule | ICAM-2 adhesion measured by binding of ICAM-2-FITC (cell surface LFA-1; PKC inhibitor treated cells) | LFA-1 activation (mAb24 binding) (LFA-1) | Kd (cell surface LFA-1; Jurkat cells, 37° C., 30 min, curve fit analysis, read-out: dissociation constant of ICAM-2-FITC binding) [nM] | Kd (cell surface LFA-1; per 10^4 cells, read-out: calculated ICAM-2 affinity) [nM] | LFA-1 activation (mAb24 binding) (LFA-1; listed as full length ICAM-2)
CN(C)CCCn1cc(C2=C(c3c[nH]c4ccccc34)C(=O)NC2=O)c2ccccc21 [bisindolymaleimide I] | not affected | inhibited ICAM-2 induced LFA-1 activation |  |  | 
B1 |  | bimodal population in active LFA-1 | 210 ± 70 | 217 ± 66 | resulted in active LFA-1
